Laboratory results from patent publication US20220296727A1, “Immunoconjugate” (DendroCyte BioTech Pty Ltd, priority 2019, published 2022).
“Also recorded” adds a separate entry of the source.

What was measured:
HL-60 cell line = test: Exposure time (kinetic) cytotoxicity on HL-60; format: cell-based
Protocol: (§1) Kinetic analysis was performed as above.
The exposure time required for DCR-2-PBD to cause cytotoxicity on the HL-60 cell line was assessed and the results are shown in FIG. 10. The viability of HL-60 cells was reduced to less than 10% within 5 hours of exposure to DCR-2PBD. At 12 hours, greater than 98% of HL-60 proliferation was inhibited while at 24 and 96 hours inhibition was greater than 99%.

U937 cells = test: U937 subcutaneous xenograft model in NSG mice; format: in vivo, mouse; conditions: for tumour growth compared to isotype-PBD (300 ug/kg): intraperitoneal, once
Protocol: NOD.Cg-Prkdc^scld//2rg^tm1Wjl/SzJ (NSG) mice obtained from Australian BioResources were housed under specific pathogen free conditions. In the subcutaneous model, 2×10^6 U937 cells were injected under the skin on the right flank. Tumours were measured daily with electronic calipers. When the mean volume of the tumours was >100 mm^3, DCR-2-PBD, isotype-PBD or PBS was injected intraperitoneally once. […] Tumour volume was measured until >1000 mm^3 when mice were euthanised as required by the ethics protocol.
In the flank injection model 2×10^6 U937 cells were injected subcutaneously into NSG mice and the subsequent tumors were measured daily via caliper to calculate the volume. Mice were injected with 150 ug/kg of DCR-2ADC, Isotype-ADC or an equal volume of PBS on day 6. Mice were euthanized once the volumes reached 1000 mm^3. Survival and tumor size was recorded.
To determine the effect of DCR-2PBD in a mouse model based on U937 cells, mice were injected subcutaneously with cell line U937. After 6 days, mice were administered PBS, […] of CMRF-81PBD or […] of DCR-2PBD intraperitoneally and monitored for tumour growth. Tumour volume and survival of the mice were assessed and the results are shown in FIGS. 17 and 18, respectively.

THP-1 = test: Cytotoxicity assay on THP-1 AML cell line; format: cell-based
Protocol: as §1
(§2) DCR-2 and an isotype control mAb were conjugated to a PBD dimer toxin, to assess potential cytotoxicity. The cytotoxicity of DCR-2-PBD and the isotype-PBD were tested against CD300f+ and CD300f− cell lines and the results are shown in FIG. 6 and Table 2.

[1] = tested on: CD300f- lymphoma cell line Mino; test: Bystander killing assay; format: cell-based
Protocol: as §1
AML surface targets, including CD300f, can be heterogeneously expressed within AML cases and we considered bystander killing advantageous for an effective ADC. To determine whether DCR-2PBD effects cells not expressing CD300f, we investigated bystander killing by comparing the viability of the CD300f− lymphoma cell line Mino cultured on its own, with Mino cultured mixed with HL-60 in the presence of DCR-2-PBD in mixtures of 50% HL-60/50% Mino, and 25% HL-60/75% Mino. Cells were incubated for 96 hours with various concentrations of DCR-2PBD (FIG. 11). […] The reduction in the Mino cells when combined with HL-60 confirm the ability of DCR-2-PBD to generate bystander killing.

T cells = test: Mixed leucocyte reaction; format: cell-based, human; conditions: 200 pmol, 24 hours pre-incubation of stimulators, day 5
Protocol: DCR-2PBD's impact on antigen presentation was assessed by incubating DCR-2PBD or isotope-PBD with whole PBMC for 24 hours then washing, afterwards adding allogenic CFSE labeled T cells (naive CD4, magnetically separated) and measuring T cell division via reduction in CFSE expression. In more detail, T cells were depleted from PBMC by magnetic selection using an AutoMACS Pro with anti-CD3 mAb (HIT3a, Biolegend) with greater than 90% depletion in all samples. The CD3-depleted PBMC were incubated in complete RPMI media with DCR-2-PBD (200 pmol), isotype-PBD (200 pmol) or PBS for 24 hours. After washing to remove unbound ADC, the CD3-depleted PBMC were used to stimulate allogeneic CFSE labelled naive CD4+ T cells which had been prepared using a RosetteSep Kit (Stem Cell Technologies 17555). On day 5 the proliferation of T cells, identified using anti-CD3 AF700 (SP34-2), was assessed by CFSE reduction using flow cytometry. The results of the DCR-2-PBD and isotype-PBD groups were normalised to the PBS control group. […]
T cells were depleted from PBMC by magnetic selection using an AutoMACS Pro with anti-CD3 mAb (HIT3a, Biolegend) with greater than 90% depletion in all samples. […] On day 5 the proliferation of T cells, identified using anti-CD3 AF700 (SP34-2), was assessed by CFSE reduction using flow cytometry. […]

primary AML cells = test: Primary AML xenograft in NSG mice; format: in vivo, mouse; conditions: single dose 300 ug/kg
Protocol: For primary AML xenografts, NSG mice were irradiated with 150cGy 24 hours before 8×10^6 AML cells from CRGH11 (sample 10 Table S1) were injected iv. Once engraftment was established (>1% human CD45 positive events in PB), mice were given DCR-2-PBD or isotype-PBD. Mice were euthanised 6 days later and the BM was harvested for enumeration and surface marker analysis by flow cytometry.

HL-60 = test: Cytotoxicity assay on HL-60 AML cell line; format: cell-based
Protocol: as §1, §2

[2] = tested on: monocyte-derived dendritic cells (MoDC); test: Monocyte-derived dendritic cell (MoDC) toxicity assay; format: cell-based, human; conditions: 200 pmol, 72 hours
Protocol: PBMC were incubated in complete RPMI media with or without DCR-2-PBD (200 pmol). After 12 hours, washed cells were incubated for a further 12 hours with or without LPS then phenotyped for the expression of activation markers on DC populations. MoDC were derived from CD14+ monocytes as described previously (Fromm et al. J Leukoc Biol. 2020; 107(2):323-339). DCR-2-PBD or isotype-PBD (200 pmol) were added for 72 hours prior to enumeration of live cells by flow cytometry.

B1: DCR-2PBD: anti-CD300f mAb DCR-2 conjugated to pyrrolobenzodiazepine dimer via Cathepsin B-cleavable linker MA-PEG4-VA-PBD; drug to antibody ratio 3.3 (conjugate)
VH: MESGGGLVQPGGPLKLSCAASGFGFSGSWMSWVRQAPGKGLEWIGQINPDSSTINYTPSLKDKFIISRDNAKNTLYLQINKVRSEDTALYYCARRGFFEGYSAWFAYW
VL: ILMTQTPKFLLVSAGDRVTITCKASQSVSNDVAWYQQKPGQSPSLLIYYASNRNTGVPDRFTGSGYETDFTFTISTVQAEDLAVYFCQQDYTSPWTFGGG
HL-60 proliferation inhibited (HL-60 cell line; 12 hours exposure): greater than 98% | HL-60 proliferation inhibition (HL-60 cell line; 24 hours exposure): greater than 99% | HL-60 proliferation inhibition (HL-60 cell line; 96 hours exposure): greater than 99% | time dependent cytotoxicity (HL-60 cell line; incubation up to 96 hours): rapid cytotoxicity | viability of HL-60 cells (HL-60 cell line; within 5 hours of exposure): less than 10% | survival compared to isotype-PBD (300 ug/kg) (U937 cells; 150 ug/kg (p=0.0017)): significantly increased | tumour growth compared to isotype-PBD (300 ug/kg) (U937 cells; 150 ug/kg): delayed | survival compared to isotype-PBD (300 ug/kg) (U937 cells; 300 ug/kg (p=0.0017)): significantly increased | tumour growth compared to isotype-PBD (300 ug/kg) (U937 cells; 300 ug/kg): delayed | IC50 (THP-1): 0.0294 nM | Mino viability vs Mino only control ([1]; 25% HL-60/75% Mino, 25 pM, 96 hours (p=0.0002)): significant reduction in viability | Mino viability vs Mino only control ([1]; 50% HL-60/50% Mino, 12.5 pM, 96 hours (p=0.0004)): significant reduction in viability | Mino viability vs Mino only control ([1]; 50% HL-60/50% Mino, 25 pM, 96 hours (p<0.0001)): significant reduction in viability | T cell proliferation in mixed lymphocyte reaction (T cells): no impact; also recorded: does not reduce T cell proliferation | AML cells as mean percentage of total cells in BM (primary AML cells): 12.32% | human AML cells in BM, mean total enumeration (primary AML cells): 0.37×10^6 | IC50 (HL-60): 0.00544 nM | effect on MoDC survival [2]: little effect
